Laboratory results: patent US20210198377A1 (XDCEXPLORER SHANGHAI, published 2021)
Numbering of substitutions follows the chain as printed. Each block holds one binder with its values, some of them ahead of it.

Assays:
[1] = molecular target: T1, biotinylated recombinant TPBG protein (Homo sapiens (Human), UniProt Q13641 32-355, Biotinylated; the number and positions of the biotin labels are not stated and the letters do not carry them.); test: competitive ELISA; row antibody 5 ug/mL; competitor: coated 5G4H10G5
T1 sequence: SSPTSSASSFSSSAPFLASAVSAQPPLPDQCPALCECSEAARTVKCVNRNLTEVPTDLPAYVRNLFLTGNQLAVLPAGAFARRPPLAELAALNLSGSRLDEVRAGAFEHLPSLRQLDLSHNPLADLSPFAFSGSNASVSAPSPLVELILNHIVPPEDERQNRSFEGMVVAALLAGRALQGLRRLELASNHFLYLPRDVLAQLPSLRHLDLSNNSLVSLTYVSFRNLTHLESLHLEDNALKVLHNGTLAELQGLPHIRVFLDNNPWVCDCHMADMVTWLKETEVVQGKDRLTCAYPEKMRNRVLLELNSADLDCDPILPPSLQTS
Method: (§1) The purified antibodies to be tested were diluted to 1 μg/mL using PBS, and coated with high-adsorption of 96-well microplates at […]. After overnight coating at 4[…], 250 μL of blocking buffer (PBS containing 0.01% (v/v) Tween20 and 1% (w/w) BSA) was added to block coating at room temperature for 1 h, and 0.05 μg/mL of biotinylated recombinant TPBG protein was added to each well. Meanwhile, 5 μg/mL final concentration of competitive antibodies, i.e. the purified antibodies obtained from Embodiment 2 with the clone number of 12B12C7C3, 5G4H10G5, 37H9C5G2, 39A11G5F2, 52C9E9F6, 28D4E6A9, 36A10D8B12, 99E12C7H1, 103E2E9C2 and 106D5G3D10 were added and incubated at 25-37° C. for 1-2 h. The plates were washed three times with plate-washing buffer (PBS containing 0.01% (v/v) Tween20) and HRP (horseradish peroxidase)-labeled streptavidin (purchased from Sigma) was added. After incubating at 37° C. for 0.5 h, the plates were washed three times with plate-washing buffer (PBS containing 0.01% (v/v) Tween20), and 100 μL of TMB substrate was added to each well and the plates were further incubated at room temperature for 30 min prior to adding 100 μL of stop buffer (1.0N HCl) to each well. A₄₅₀ₙₘ values were read using an ELISA microplate reader (SpectraMax 384plus purchased from Molecular Device) and results were shown in FIG. 6. The higher the values of the competition rate, the closer the antigen surface of the two antibodies are.

[2] = molecular target: T1, biotinylated recombinant TPBG protein; test: competitive ELISA; row antibody 5 ug/mL; competitor: coated 106D5G3D10
Method: as §1

competition rate [1]: 47% | competition rate [2]: 96%
B1: 12B12C7C3 (antibody, V domains shown)
VH: DVQLVESGGGLVQPGGSRKLSCAASGFTFSNFGMHWVRQAPEKGLEWVAYISSGSTSFYYADTVKGRFTISRDNPKNTLFLQMTSLRSEDTAMYYCSRTNSLLRGFFDAWGAGTTVTVSS
VL: DIVLTQSPASLAVSLGQRATISCRASQSVSSSSYTYLHWYQQKPGQPPKLLIKSASNLESGVPARFSGTGSGTDFTLNIHPVEEEDTATYYCQHSWEIPLTFGAGTKLELK
notes: Mouse hybridoma antibody purified from culture supernatant; also called TPBG antibody; lead antibody

competition rate [1]: 12% | competition rate [2]: 4%
B2: 37H9C5G2 (antibody, V domains shown)
VH: QVQLQQSDAELVRPGASVKMSCKVSGYTFTDHTIHWMKQRPEQGLEWIGYIYPRDGSGTYNEKFKGKATLTADKSSSTAYMQLNSLTSEDSAVYFCARDGSSHYWYFDVWGTGTTVTVSS
VL: DIQMTQSPASLSASVGETVTITCRASEIIYNYLAWYQQKQGKSPQLLVYNAKTLAEGVPSRFSGSYSGTQFSLNINSLQSEDFGIYYCQHHHDTPLTFGAGTKLDLK
notes: as for B1

competition rate [1]: 97% | competition rate [2]: 3%
B3: 5G4H10G5 (antibody, V domains shown)
VH: EVQLVESGGDLVQPGGSLKLFCAASGFTFSTYGLSWVRQTPDKRLELVATITNNDGSAYYPDSVKGRFTISRDKAKNTLFLQMTSLKSEDTAMYYCARETGFGSSYLFDYWGQGTLVTVSA
VL: NIVMTQTPKFLLVSAGDRVTITCKASQSVSNDVAWYQQKPGQSPKLLIYFATNRYTGVPNRFTGSGYGTEFTFTISSVQAEDLAVYFCQQDYSSPTFGGGTKLEIK
notes: as for B1

competition rate [1]: 19% | competition rate [2]: 4%
B4: 39A11G5F2 (antibody, V domains shown)
VH: QVQLQQSGAELMKPGASMRLSCKATGYTFTGYWLEWIKRRPGHGLEWIGEILPGRGSTNYNEKFKGKATFTAETSSNTAYMQLTSLTTEDSAIYYCARGGRDFDNWGQGTTLTVSS
VL: DIQMTQSTSSLSASLGDRVTISCSASQGINNHLNWYQQKPDGTVKLLIYYTSSLHSGVPSRFSGSGSGTDYSLTISNLEPEDIAIYYCQQFSKLPYTFGGGTKVEMK
notes: as for B1

competition rate [1]: 32% | competition rate [2]: 7%
B5: 52C9E9F6 (antibody, V domains shown)
VH: QVQLQQSGAELMKPGASVKLSCKATGYTFTGYWIEWIKQRPGHGLEWIGEILPGRGSTDYNEKFKGKATFTADTSSNTAYMQLSSLTTEDSAIYYCTRGRLDFTYWGQGTLVTVSA
VL: B4 VL with S7T, N30R, H32Y, I85T, F91Y, L94V, Y96W, V104L, M106I
notes: as for B1

competition rate [1]: 11% | competition rate [2]: 5%
B6: 28D4E6A9 (antibody, V domains shown)
VH: DVQLVESGGGLVRPGGSLKLSCAASGFTFSNYVMSWARQSPEKRLEWVAEISTGGSHTYYSDTVTGRFTISRDNAKKALYLEMSSLRSEDTAIYYCIMFYYGSSYSMDYWGQGTSVTVSS
VL: DIQMTQSTSSLSASLGDRITISCRASQDIRNYLNWYQQKPDGTVKLLIYHTSRLHSGVPSRFSGSGSGTDYSLTISNLEQEDIATYFCQQGDTLPLTFGAGTRLELK
notes: as for B1

competition rate [1]: 95% | competition rate [2]: 12%
B7: 99E12C7H1 (antibody, V domains shown)
VH: QIQLVQSGPELKKPGETVKISCKPSGYTFTAYGLSWVKQAPGQGFQWMGWINTYSGVPTYTDDFKGRFAFSLETSAGTASLQITNLKNEDTATYFCARSSIPPFEYWGPGTTLTVSS
VL: SFVMTQSPKFLLVSVGDRVTITCKASQSVSNDVAWYQQKPGQPPRVLIYFASNRYTGVPDRFTGSGYGTDFTFTISTVQAEDLALYFCQQDYSSPWTFGGGTKLEIK
notes: as for B1

competition rate [1]: 40% | competition rate [2]: 94%
B8: 106D5G3D10 (antibody, V domains shown)
VH: EVQLVESGGGLVKPGGSLKLSCAASGFTFSDYGMHWVRQAPEKGLEWVGYISSGTYVVYYADTVKGRFTISRDNAKNTLFLQMTSLRSEDTAIYYCSTYGSNPFDYWGQGTTLTVSS
VL: QLVLTQSPAIMSASPGEKVTITCSATSSVSSMHWFQQKPVTSPKLWIYSTSNLASGVPTRFSGSGSGTSYSLTISRMEAEDAATYYCQQRSGYPPIFTFGSGTKLEIK
notes: as for B1

competition rate [1]: 7% | competition rate [2]: 0%
B9: 103E2E9C2 (antibody, V domains shown)
VH: EVQLQQSGPVLVKPGASVKMSCEASGYSFIDYYMSWVKQSRGRSLEWIGVFNPYSGEIIYNQKFKGKATLTVDKSSSTAYMELSSLTSEDSGVYSCARLRISYYAIDYWGQGTSVAVSS
VL: ENVLTQSPAIMSASPGEKVTMTCRATSSVSSGHFHWYQQKSGASPKVWIYSTSNLASGVPARFSGSGSGTSFSLTISSVEAEDVATYFCQQYSGYPLTFGGGTKLEIK
notes: as for B1

competition rate [1]: 17% | competition rate [2]: 14%
B10: 36A10D8B12 (antibody, V domains shown)
VH: DVQLQESGPGMVKPSQSLSLTCTVTGYSITSGYDWHWIRHFPGNKLEWMGYISYSGNTNYNPSLKSRISITHNTSKNHFFLRLNSVTTEDTATYYCARGYGNWDAMDYWGQGTSVTVSS
VL: DIVMTQSQKFMSTSVGDRVSVTCKASQIVDTNVAWYQQKPGQSPKALISSASYRYSGVPDRFTGSGSGTDFTLTISNVQSEDLAEYFCQQYNSYPLTFGAGTKLELT
notes: as for B1
